Experimental data reported in article PMC5840378.

Molecular target: T1, 14-3-3ε full length (14-3-3ε FL), recombinant, P62258
T1 chain: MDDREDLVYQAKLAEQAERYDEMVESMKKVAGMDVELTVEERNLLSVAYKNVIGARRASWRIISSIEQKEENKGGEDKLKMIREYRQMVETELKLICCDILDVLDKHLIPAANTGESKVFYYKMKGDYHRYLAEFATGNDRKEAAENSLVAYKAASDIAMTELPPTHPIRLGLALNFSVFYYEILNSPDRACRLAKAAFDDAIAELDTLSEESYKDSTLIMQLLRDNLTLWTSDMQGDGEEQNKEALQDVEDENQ
Assay: AUC + other: dynamic light scattering; sedimentation velocity, 20 °C, 45,000 r.p.m., 37 μM, 5 mM sodium phosphate pH 6.3; DLS at 0.1 mg/mL, 25 °C, same buffer
Details: remark: other sources report otherwise

- stoichiometry N: 2
B1: 14-3-3ε full length (14-3-3ε FL), recombinant, P62258 1-255 (natural protein)
chain: T1 chain
